The supplement of paper PMC12338614
± gives the uncertainty stated by the source.

B1: library; numbered along this chain (parent)
chain: MEVVDPQQLGMFTEGELMSVGMDTFIHRIDSTEVIYQPRRKRAKLIGKYLMGDLLGEGSYGKVKEVLDSETLCRRAVKILKKKKLRRIPNGEANVKKEIQLLRRLRHKNVIQLVDVLYNEEKQKMYMVMEYCVCGMQEMLDSVPEKRFPVCQAHGYFCQLIDGLEYLHSQGIVHKDIKPGNLLLTTGGTLKISDLGVAEALHPFAADDTCRTSQGSPAFQPPEIANGLDTFSGFKVDIWSAGVTLYNITTGLYPFEGDNIYKLFENIGKGSYAIPGDCGPPLSDLLKGMLEYEPAKRFSIRQIRQHSWFRKKHPPAEAPVPIPPSPDTKDRWRSMTVVPYLEDLHGADEDEDLFDIEDDIIYTQDFTVPGQVPEEEASHNGQRRGLPKAVCMNGTEAAQLSTKSRAEGRAPNPARKACSASSKIRRLSACKQQ

Variants of: B1
Test: STK11 functional score (HeLa growth suppression), rescaled enrichment; synonymous median = 1, nonsense median = 0 (normalised score)
Conditions: with HeLa; variant type: missense
Summary of the method: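 HeLa cells carrying an AAVS1 landing pad received codon-optimised STK11 libraries made by codon randomisation (POPCode), integrated by Bxb1, with three regions each transfected three times. Integrants that were BFP-negative and mCherry-positive were sorted by FACS 4–5 days after electroporation and then grown for about two weeks. Tiled amplicons from gDNA were sequenced on NextSeq at ~2 million reads per tile. The functional score is a wild-type-corrected log ratio of post- to pre-selection counts, rescaled to the synonymous and nonsense medians, merged across codons and replicate transfections, and given a bootstrapped error.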

L353Y and L353F are within error of each other in STK11 functional score: 1.4 ± 0.4 for the first, 1.27 ± 0.6 for the second.

Compared with M51H, V150W is lower in STK11 functional score: 1.68 ± 0.32 for the first, 0.631 ± 0.074 for the second.

Going from I322A to I322R, the STK11 functional score falls from 1.53 ± 0.16 to 1.11 ± 0.2.

I322E and Q302E are within error of each other in STK11 functional score: 1.11 ± 0.19 for the first, 0.957 ± 0.21 for the second.

Going from A76H to Y292E, the STK11 functional score rises from 0.362 ± 0.17 to 1.52 ± 0.22.

Compared with Q214V, E396W is higher in STK11 functional score: 0.919 ± 0.23 for the first, 1.49 ± 0.21 for the second.

E396C and V173F are within error of each other in STK11 functional score: 1.26 ± 0.42 for the first, 0.953 ± 0.33 for the second.

A417D and N380Y are within error of each other in STK11 functional score: 1.41 ± 0.36 for the first, 1.14 ± 0.4 for the second.

P294T and P294E are within error of each other in STK11 functional score: 1.09 ± 0.31 for the first, 1.3 ± 0.3 for the second.

First: C132G
Second: C132E
The STK11 functional score of the first is lower: 0.44 ± 0.083 for the first, 1.06 ± 0.36 for the second.

Compared with R74V, L285G is lower in STK11 functional score: 0.653 ± 0.33 for the first, -0.0815 ± 0.1 for the second.

V338R and V338S are within error of each other in STK11 functional score: 0.93 ± 0.4 for the first, 1.59 ± 0.26 for the second.

Compared with I46D, C418I is higher in STK11 functional score: 0.149 ± 0.15 for the first, 1.41 ± 0.31 for the second.

E57V and E57D are within error of each other in STK11 functional score: 0.968 ± 0.17 for the first, 0.893 ± 0.15 for the second.

Compared with G288H, R310P is lower in STK11 functional score: 1.61 ± 0.19 for the first, 0.954 ± 0.3 for the second.

Compared with N259M, N259V is lower in STK11 functional score: 1.35 ± 0.12 for the first, 0.437 ± 0.1 for the second.

Compared with Q170M, Q170E is lower in STK11 functional score: 1.54 ± 0.25 for the first, 0.234 ± 0.13 for the second.

First: Q170W
Second: S216R
The STK11 functional score of the first is higher: 1.17 ± 0.12 for the first, -0.166 ± 0.096 for the second.

Going from S216D to P319Y, the STK11 functional score rises from 0.167 ± 0.37 to 1.46 ± 0.21.

M335C and M335P are within error of each other in STK11 functional score: 1.36 ± 0.15 for the first, 1.5 ± 0.2 for the second.

Going from L164S to G279Y, the STK11 functional score rises from 0.135 ± 0.1 to 1.43 ± 0.33.

S404T and S404M are within error of each other in STK11 functional score: 1.23 ± 0.67 for the first, 1.58 ± 0.28 for the second.

K83W and K83E are within error of each other in STK11 functional score: 1.53 ± 0.11 for the first, 1.48 ± 0.68 for the second.

E138Y and Q123G are within error of each other in STK11 functional score: 1.08 ± 0.077 for the first, 0.98 ± 0.27 for the second.

Q123E and E120V are within error of each other in STK11 functional score: 1.15 ± 0.23 for the first, 1.09 ± 0.086 for the second.

T189C and T189F are within error of each other in STK11 functional score: 1.15 ± 0.55 for the first, 1.25 ± 0.47 for the second.

Compared with T189R, I79L is lower in STK11 functional score: 1.41 ± 0.14 for the first, 0.451 ± 0.14 for the second.

First: I79C
Second: I79R
The STK11 functional score of the first is lower: 0.264 ± 0.28 for the first, 0.967 ± 0.28 for the second.

M392I and V368I are within error of each other in STK11 functional score: 1.42 ± 0.52 for the first, 1.53 ± 0.16 for the second.

R103T and T328W are within error of each other in STK11 functional score: 1.32 ± 0.27 for the first, 1.59 ± 0.26 for the second.

A420R and I260G are within error of each other in STK11 functional score: 1.51 ± 0.28 for the first, 1.1 ± 0.25 for the second.

G394Q and G394D are within error of each other in STK11 functional score: 1.35 ± 0.35 for the first, 1.32 ± 0.1 for the second.

R39D and R39G are within error of each other in STK11 functional score: 1.19 ± 0.099 for the first, 1.04 ± 0.45 for the second.

Going from R39E to D343Q, the STK11 functional score rises from -0.363 ± 0.48 to 0.992 ± 0.12.

First: D141T
Second: P321R
The STK11 functional score of the first is lower: 0.00893 ± 0.31 for the first, 1.26 ± 0.26 for the second.

P314Q and I172V are within error of each other in STK11 functional score: 1.17 ± 0.14 for the first, 1.21 ± 0.39 for the second.

Going from I172R to T244Q, the STK11 functional score falls from 0.401 ± 0.096 to -0.178 ± 0.32.

I274C and I274Y are within error of each other in STK11 functional score: 0.973 ± 0.19 for the first, 1.16 ± 0.29 for the second.

I274D and I274A are within error of each other in STK11 functional score: 0.889 ± 0.3 for the first, 0.907 ± 0.16 for the second.

F234V and F234R are within error of each other in STK11 functional score: 1.2 ± 0.36 for the first, 1.5 ± 0.19 for the second.

Compared with D176M, P89S is higher in STK11 functional score: 0.0191 ± 0.14 for the first, 0.816 ± 0.17 for the second.

P149N and F298Y are within error of each other in STK11 functional score: 1.38 ± 0.22 for the first, 0.754 ± 0.77 for the second.

E293S and K175A are within error of each other in STK11 functional score: 1.08 ± 0.25 for the first, 0.904 ± 0.14 for the second.

K175L and K146G are within error of each other in STK11 functional score: 1.11 ± 0.18 for the first, 0.814 ± 0.28 for the second.

P387Q and H27L are within error of each other in STK11 functional score: 1.37 ± 0.32 for the first, 1.35 ± 0.19 for the second.

S421F and S421R are within error of each other in STK11 functional score: 1.08 ± 0.5 for the first, 1.44 ± 0.41 for the second.

First: K96I
Second: R425D
The STK11 functional score of the first is lower: 1.08 ± 0.17 for the first, 1.61 ± 0.26 for the second.

Going from K178T to K178G, the STK11 functional score falls from 0.951 ± 0.27 to 0.325 ± 0.098.

P326H and Y166T are within error of each other in STK11 functional score: 0.87 ± 0.51 for the first, 1.11 ± 0.67 for the second.

I224H and L344Y are within error of each other in STK11 functional score: 1.46 ± 0.41 for the first, 0.904 ± 0.2 for the second.

First: A198H
Second: F255V
The STK11 functional score of the first is higher: 1.54 ± 0.13 for the first, 1.09 ± 0.13 for the second.

F255P and F255E are within error of each other in STK11 functional score: 0.517 ± 0.11 for the first, 0.827 ± 0.37 for the second.

Compared with D359T, G270A is lower in STK11 functional score: 1.57 ± 0.21 for the first, 0.849 ± 0.32 for the second.

A43S and L113C are within error of each other in STK11 functional score: 1.34 ± 0.25 for the first, 1.16 ± 0.54 for the second.

Going from D208V to E376I, the STK11 functional score rises from 1.06 ± 0.12 to 1.54 ± 0.28.

S271I and S271Q are within error of each other in STK11 functional score: 1.15 ± 0.3 for the first, 1.08 ± 0.65 for the second.

Compared with E65Y, A318Q is higher in STK11 functional score: 1.05 ± 0.095 for the first, 1.61 ± 0.29 for the second.

Going from E98Y to R331I, the STK11 functional score rises from 0.182 ± 0.18 to 1.16 ± 0.2.

Compared with R28P, L228Y is higher in STK11 functional score: 0.47 ± 0.12 for the first, 1.25 ± 0.54 for the second.

L117A and R409M are within error of each other in STK11 functional score: 1.27 ± 0.31 for the first, 1.15 ± 0.63 for the second.

Y131S and P275W are within error of each other in STK11 functional score: 1.18 ± 0.22 for the first, 0.995 ± 0.1 for the second.

First: P275M
Second: T230W
The STK11 functional score of the first is lower: 0.445 ± 0.12 for the first, 1.17 ± 0.48 for the second.

T230M and T230N are within error of each other in STK11 functional score: 0.971 ± 0.28 for the first, 1.2 ± 0.42 for the second.

S334M and R40P are within error of each other in STK11 functional score: 1.05 ± 0.17 for the first, 1.17 ± 0.38 for the second.

A406N and A406D are within error of each other in STK11 functional score: 1.58 ± 0.32 for the first, 1.4 ± 0.36 for the second.

Going from D277T to D277L, the STK11 functional score falls from 1.59 ± 0.32 to 0.92 ± 0.12.

E265S and E265F are within error of each other in STK11 functional score: 1.49 ± 0.32 for the first, 1.08 ± 0.34 for the second.

Q305C and V114D are within error of each other in STK11 functional score: 1.27 ± 0.4 for the first, 1.17 ± 0.27 for the second.

Going from W239G to R384W, the STK11 functional score rises from -0.0583 ± 0.093 to 1.35 ± 0.15.

Compared with R304V, R304Y is lower in STK11 functional score: 1.51 ± 0.27 for the first, -0.17 ± 0.25 for the second.

M136W and M136K are within error of each other in STK11 functional score: -0.224 ± 0.078 for the first, 0.279 ± 0.63 for the second.

Q432L and Q432R are within error of each other in STK11 functional score: 1.55 ± 0.15 for the first, 1.6 ± 0.16 for the second.

L282H and L282K are within error of each other in STK11 functional score: 0.737 ± 0.71 for the first, 0.565 ± 0.1 for the second.

First: L282S
Second: I35G
The STK11 functional score of the first is lower: 0.442 ± 0.08 for the first, 1.25 ± 0.57 for the second.

Compared with I35R, H174V is lower in STK11 functional score: 1.61 ± 0.21 for the first, 0.69 ± 0.11 for the second.

Compared with L400H, G58P is lower in STK11 functional score: 1.42 ± 0.29 for the first, 0.174 ± 0.093 for the second.

S299I and G370L are within error of each other in STK11 functional score: 1.25 ± 0.34 for the first, 1.42 ± 0.27 for the second.

G370R and Y36C are within error of each other in STK11 functional score: 1.16 ± 0.47 for the first, 1.11 ± 0.25 for the second.

Y36T and Y36D are within error of each other in STK11 functional score: 1.04 ± 0.72 for the first, 1.27 ± 0.22 for the second.

First: Y36M
Second: T186N
The STK11 functional score of the first is higher: 0.892 ± 0.31 for the first, 0.218 ± 0.11 for the second.

Going from T186L to K124P, the STK11 functional score falls from 1.54 ± 0.17 to 0.692 ± 0.35.

E14S and E14M are within error of each other in STK11 functional score: 1.34 ± 0.15 for the first, 1.62 ± 0.18 for the second.

Going from E14I to K78S, the STK11 functional score falls from 1.4 ± 0.14 to -0.111 ± 0.1.

S69E was tested, and the STK11 functional score was 1.23 ± 0.091.
